± gives the standard error. For some assays here: This sample holds only a part of the variants without activity.
B1: glmS ribozyme (parent)
chain: AUAAAAGCGCCAGAACUACAGAAAUGUAGUUGACGAGGAGGAGGUUUAUCGAAUUUUCGGCGGAUGCCUCCAAA

How the values were obtained:
Settings in all cases: with glucosamine-6-phosphate
[1] = variants of: B1; assay: kcat; higher = faster cleavage; RNA array
How it was run: (§1)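 Tiles of sequenced MiSeq chips were imaged over ~14 h at 37 °C. On them, barcoded ribozyme variants had been transcribed in situ by E. coli RNA polymerase and were tracked via a hybridised Cy3 probe while glucosamine-6-phosphate (40 μM to 10 mM) in HEPES/KCl/Mg(OAc)2 buffer flowed in. Per-tile medians, normalised to baseline and to non-cleaving reference variants, were fit to one- or two-exponential decays for kobs, and weighted Michaelis–Menten fits gave kcat and KM.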

[2] = variants of: B1; assay: self-cleavage kobs at 640 uM GlcN6P; higher = faster cleavage; RNA array
How it was run: as §1

[3] = variants of: B1; assay: self-cleavage kobs at 10000 uM GlcN6P; higher = faster cleavage; RNA array
How it was run: as §1

[4] = variants of: B1; assay: KM; higher = weaker cofactor use; RNA array
How it was run: as §1

[5] = variants of: B1; assay: self-cleavage kobs at 160 uM GlcN6P; higher = faster cleavage; RNA array
How it was run: as §1

[6] = variants of: B1; assay: self-cleavage kobs at 2500 uM GlcN6P; higher = faster cleavage; RNA array
How it was run: as §1

[7] = variants of: B1; assay: self-cleavage kobs at 40 uM GlcN6P; higher = faster cleavage; RNA array
How it was run: as §1

| Variant | kcat [1] [s⁻¹] | self-cleavage kobs at 640 uM GlcN6P [2] [s⁻¹] | self-cleavage kobs at 10000 uM GlcN6P [3] [s⁻¹] | KM [4] [mM] | self-cleavage kobs at 160 uM GlcN6P [5] [s⁻¹] | self-cleavage kobs at 2500 uM GlcN6P [6] [s⁻¹] | self-cleavage kobs at 40 uM GlcN6P [7] [s⁻¹] |
| --- | --- | --- | --- | --- | --- | --- | --- |
| U31G A36U | < 1e-05 | < 1e-05 | < 1e-05 | – | – | – | – |
| G32U U65A | 0.000104 ± 1.3e-05 | – | 6.61e-05 ± 1.3e-05 | 5.75 ± 1.6 | < 1e-05 | – | – |
| U31G U56C | 0.000772 ± 3.5e-05 | 0.000179 ± 2.9e-05 | 0.000628 ± 9.2e-05 | 2.21 ± 0.18 | 4.9e-05 ± 1.7e-05 | 0.000413 ± 0.00012 | – |
| G32C C50U | < 1e-05 | < 1e-05 | < 1e-05 | – | – | – | – |
| G32C A52U | < 1e-05 | – | – | – | – | – | < 1e-05 |
| A33C U57A | 2.16e-05 ± 4.2e-06 | – | – | – | – | – | – |
| G32U U47G | 0.000502 ± 8.1e-05 | 5.12e-05 ± 1.7e-05 | 0.000336 ± 4.6e-05 | 4.7 ± 1.4 | – | 0.000189 ± 3.3e-05 | – |
| G32U U47C | 0.000177 ± 4.1e-05 | – | 9.94e-05 ± 1.4e-05 | 7.84 ± 3.4 | – | 4.27e-05 ± 1.2e-05 | – |
| G32A A42G | 0.00505 ± 0.0014 | 0.00133 ± 0.00025 | 0.00357 ± 0.00047 | 3.14 ± 1.2 | 0.000193 ± 3.2e-05 | 0.00281 ± 0.00043 | 7.49e-05 ± 1.3e-05 |
| A33U U46G | 1.23e-05 ± 2.7e-06 | – | – | – | < 1e-05 | – | < 1e-05 |
| G35A G37A G44U U49G C67G | < 1e-05 | – | – | – | – | < 1e-05 | – |
| C34G C61G | < 1e-05 | < 1e-05 | – | – | – | – | < 1e-05 |
| C34G C70U | < 1e-05 | – | < 1e-05 | – | – | – | – |
| C34U G60A | < 1e-05 | < 1e-05 | < 1e-05 | – | – | – | – |
| C34U G38A C71U | < 1e-05 | – | – | – | < 1e-05 | < 1e-05 | < 1e-05 |
| G32C U46G | 1.21e-05 ± 4.8e-07 | – | – | 0.349 ± 0.15 | – | – | – |
| G32A A64U | < 1e-05 | < 1e-05 | – | – | < 1e-05 | – | < 1e-05 |
| A33U A53G C70U | 0.000178 ± 1.5e-05 | – | 5.75e-05 ± 9.2e-06 | – | – | – | – |
| G32U G41U | 0.000152 ± 3.7e-06 | 4.19e-05 ± 1.5e-05 | 0.00013 ± 1e-05 | 1.64 ± 0.17 | – | 9.36e-05 ± 1.9e-05 | – |
| G32U A39U | 0.000723 ± 0.00022 | 5.81e-05 ± 5.6e-06 | 0.000411 ± 3.1e-05 | 8.4 ± 3.5 | 3.38e-05 ± 1e-05 | 0.000148 ± 1.2e-05 | – |

From the supplement of paper PMC7125110
